Where two headings read alike, the source gives them in different places.

The target in one data set is FLAG-MCL1 (Homo sapiens, UniProt Q07820). The class given is binding. To be noted: COS cell lysate, anti-HA immunoprecipitation.
Data set [1] relates to MCL1. The class given is cell-based.
The target in the next data set is p53 (Homo sapiens, UniProt P04637). Briefly: Coimmunoprecipitation of fortilin and p53 from U2OS cell lysates. The class given is binding. Details: endogenous in cells; host or cells: U2OS. The procedure:
As in example 2, studies were initiated to determine whether p53 and Fortilin specifically interact in U2OS cells. Six million U2OS cells stably expressing either HA-fortilin or HA-only were suspended in lysis-binding-wash buffer (50 mM HEPES, pH7.5, 70 mM KCl, 0.5 mM ATP, 5 mM MgSO4, 1 mM DTT, 0.1% NP40, 2 mg/mL BSA, Aprotinin, PMSF, MG132 and protease inhibitor cocktail). Cells were then mechanically disrupted by nitrogen excavitation method. Cleared total cell lysates were incubated with […] anti-HA antibody (3F10, Roche), followed by the incubation with anti-mouse IgG conjugated to magnetic beads (Dynal USA) and extensive wash with lysis-binding-wash buffer.
Further experiments were conducted to determine in vivo immunoprecipitation of fortilin by p53. Twenty million U2OS cells were suspended in lysis-binding buffer (50 mM HEPES, pH7.5, 70 mM KCl, 0.5 mM ATP, 5 mM MgSO4, 1 mM DTT, 0.001% NP40, 2 mg/mL BSA, Aprotinin, PMSF, MG132 and protease inhibitor cocktail). Cells were then mechanically disrupted by nitrogen excavitation method. Cleared total cell lysates were divided equally into two eppendorf tubes. To the first tube, anti-p53 antibody (DO-1, […]) was added, while […] control monoclonal antibody was added to the second tube. After incubation, formed complexes were precipitated by goat anti-mouse IgG conjugated to magnetic beads (Dynal USA), followed by extensive wash. […]

The target of data set [2] is T1, MCL1 (Homo sapiens, UniProt Q07820). Briefly: Yeast two-hybrid assay, X-gal filter lift. The class given is binding. To be noted: Saccharomyces cerevisiae SFY526 cells. The text has this:
Yeast two-hybrid assay. Saccharomyces cerevisiae SFY526 cells (CloneTech) were cotransformed with (a) empty pAS2.1 vector or pAS2.1 vector containing a full-length MCL1 construct and (b) empty pACT2 vector or pACT2 vector containing FL1, the original clone isolated from yeast two-hybrid screening and representative of the nearly full-length Fortilin molecule (amino acids 5-172). FL1 was redesignated as FortilinΔ5-172. Transformed cells were selected on SD plates lacking tryptophan and leucine (SD/-Trp/-Leu plates) for 7 days and subjected to a X-gal filter lift assay as described above. The blue color that developed within 8 hours was considered to represent a positive interaction.
The yeast two-hybrid system was employed to evaluate any interaction between Fortilin and MCL1. Saccharomyces cerevisiae SFY526 cells were co-transformed with pAS2.1 or pAS2.1-MCL1 and pGAD GH or pGAD GH-FL1, the 5th-172st amino acids of Fortilin. Transformed cells were selected on SD/-Trp/-Leu plates. Grown colonies on these selection plates were subjected to a X-gal filter lift assay, as the reporter gene was […] under the control of a promoter containing the element recognized by the DNA binding domain. […] MCL1 consists of four BH (Bcl-2 homology) domains and two PEST (proline (P), glutamic acid (E), serine (S) and threonine (T)) sequences. “CHT” denotes the C-terminus Hydrophobic Tail. […]

For data set [3], the target named is T1, MCL1. Briefly: In vitro pull-down assay of HA-tagged Fortilin or mutants with MCL1. The class given is binding. To be noted: in vitro translated 35S-labeled proteins, anti-HA pull-down.
The test system of a further data set is U2OS cells. To be noted: U2OS stable transfectants of HA-tagged Fortilin or deletion mutants, 5 μg/mL etoposide 48 hours.
Data set [4] concerns the target T1, MCL1. Briefly: In vivo coimmunoprecipitation assay in U2OS stable transfectants of Fortilin and mutants. To be noted: anti-HA immunoprecipitation.
Description: In vivo coimmunoprecipitation assay. COS-7 cells (2.5×10^6) were cotransfected with pcDNA3-Fortilin-HA or pcDNA3 and with FLAG-MCL1/pFLAG-CMV or pFLAG-CMV vectors using FuGENE6 (Roche Molecular Biochemicals), according to the manufacturer's instructions. […] Formed complexes were precipitated by sheep anti-rat antibodies conjugated to Dynabead™ (Dynal USA); washed with Buffers A and B; eluted into SDS gel loading buffer; and subjected to SDS-PAGE, Western blot transfer and immuodetection with anti-HA (16B12; Covance, Richmond, Calif.) and anti-FLAG (M2; Sigma) antibodies. […] Cells were harvested by scraping, washed with chilled PBS, suspended in Buffer C (Buffer A supplemented with 0.02% NP-40), and lysed by a nitrogen cavitation method (PARR Instrument Co). […] Formed complexes were precipitated by sheep anti-rat antibodies conjugated to Dynabeads™ (Dynal USA); washed with Buffers C; eluted into SDS gel loading buffer; and subjected to SDS-PAGE, Western blot transfer and immuodetection with anti-HA (16B12; Covance, Richmond, Calif.) and anti-MCL1 (Santa Cruz Biotechnology) antibodies.

T1 sequence (Q07820 whole entry, the tested form may be a part): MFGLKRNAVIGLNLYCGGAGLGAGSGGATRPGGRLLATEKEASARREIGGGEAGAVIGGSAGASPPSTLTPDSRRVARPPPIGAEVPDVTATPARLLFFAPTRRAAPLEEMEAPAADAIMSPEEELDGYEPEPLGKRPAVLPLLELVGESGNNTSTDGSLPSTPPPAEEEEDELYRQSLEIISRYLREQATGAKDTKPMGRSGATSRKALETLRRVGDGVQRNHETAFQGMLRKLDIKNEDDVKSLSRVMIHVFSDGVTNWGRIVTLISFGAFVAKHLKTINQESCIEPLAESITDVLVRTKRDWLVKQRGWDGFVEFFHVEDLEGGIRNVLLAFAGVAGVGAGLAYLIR
Chain of p53 (P04637 whole entry, species assumed): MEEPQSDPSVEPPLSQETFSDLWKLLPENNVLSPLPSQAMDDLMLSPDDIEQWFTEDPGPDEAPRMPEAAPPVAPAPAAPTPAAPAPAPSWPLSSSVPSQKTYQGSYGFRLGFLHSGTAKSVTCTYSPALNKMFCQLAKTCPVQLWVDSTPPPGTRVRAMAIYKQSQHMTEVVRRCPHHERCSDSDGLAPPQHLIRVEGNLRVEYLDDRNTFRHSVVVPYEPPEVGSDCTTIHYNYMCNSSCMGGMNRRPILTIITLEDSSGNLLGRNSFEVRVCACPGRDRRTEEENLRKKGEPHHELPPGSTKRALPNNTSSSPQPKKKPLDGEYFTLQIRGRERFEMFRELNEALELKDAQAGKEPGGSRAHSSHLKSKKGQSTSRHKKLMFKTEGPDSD
Chain of FLAG-MCL1 (Q07820 whole entry): as the sequence (Q07820 whole entry, the tested form may be a part) above
Description for U2OS cells: Generation and characterization of U2OS cells stably expressing Fortilin. U2OS cells were transfected with empty pcDNA6, a mammalian expression vector containing a blasticidine resistance gene (Invitrogen, Carlsbad, Calif.), or with pcDNA6 vector encoding wild-type Fortilin, by using FuGENE6 (Roche Molecular Biochemicals) according to the manufacturer's instructions. Transfected cells were selected for approximately 3 weeks and characterized by Western blot analysis. For the cytotoxicity assay, U2OS cells stably expressing wild-type Fortilin (U2OS.F) and U2OS cells stably harboring empty pcDNA6 (U2OS.E) were seeded in a 96 well plate in quadruplicate. For the investigation of dose response, cells were challenged with various concentrations of etoposide (0-20 μg/mL) for 48 hours. For the time course study, cells were challenged with 5 μg/mL of etoposide and harvested after various incubation periods (0-96 hours). In both cases, the cell media were assayed for the lactate dehydrogenase (LDH) activity released from the cytosol of damaged cells, using a cytotoxicity detection kit (Roche Molecular Biochemicals) according to the manufacturer's instructions. The cytotoxicity index was calculated as follows: (LDH activity in the media−background LDH activity)÷(LDH activity in the medium of cells lysed by 1% Triton X-100−background LDH activity)×100.
Cell death assay. U2OS cells stably expressing Fortilin or its mutants were seeded in 96-well plates in triplicate. Cells were then challenged with 5 μg/mL of etoposide (Sigma) for 48 hours. Then the cell media were assayed for the lactate dehydrogenase (LDH) activity released from the cytosol of damaged cells, using a Cytotoxicity Detection Kit (Roche Molecular Biochemicals), according to the manufacturer's instructions. The cytotoxicity index was calculated as follows: (LDH activity in the media−background LDH activity)/(LDH activity in the medium of the cells lysed by 1% Triton X-100−background LDH activity)×100.
Statistical analysis. For analysis of the statistical significance of differences in cytotoxicity indices among cells stably transfected with Fortilin, its mutants or control plasmids, Student's t-test was performed using a commercial software (Minitab Inc., State College, Pa.). In all cases, a P-value less than 0.05 was considered to be statistically significant.

“Fortilin-HA: influenza hemagglutinin-tagged Fortilin”: the “co-precipitation of FLAG-MCL1 in vivo” value in the data set with FLAG-MCL1 is on record as “FLAG-MCL1 was co-precipitated only in the presence of immunoprecipitated Fortilin-HA”. Besides, the “intracellular localization of MCL1” value with MCL1 [1] is given as “MCL1 was consistently localized in the nucleus just as it was in the cells transfected with empty vector”. Also, in the data set with p53, the “co-precipitation of fortilin and p53 in vivo” value was “the presence of fortilin was necessary and sufficient for the co-precipitation of p53”.

B1: FortilinΔ5-172: nearly full-length Fortilin molecule (amino acids 5-172) (protein)
chain: RDLISHDEMFSDIYKIREIADGLCLEVEGKMVSRTEGNIDDSLIGGNASAEGPEGEGTESTVITGVDIVMNHHLQETSFTKEAYKKYIKDYMKSIKGKLEEQRPERVKPFMTGAAEQIKHILANFKNYQFFIGENMNPDGMVALLDYREDGVTPYMIFFKDGLEMEKC
modifications: left off: small tags and cut ends
For B1, the “interaction with MCL1 in yeast (X-gal activity)” value with MCL1 [2] is reported as “X-gal activity was observed”. The figures for the “interaction / co-immunoprecipitation with MCL1 in vitro” value in the data set with MCL1 [3] and with MCL1 [3] (listed as Fortilin (5-172)) were “interacted” and “co-immunoprecipitated MCL1 in vitro”, respectively. Besides, the “cytotoxicity index relative to control transfectants” value in the data set on U2OS cells was “significantly lower”; in the data set on U2OS cells (listed as fortilinΔ5-172) it was “significantly lower than the cytotoxicity index of control cells”. The “co-immunoprecipitation of MCL1 in vivo” value in the data set with MCL1 [4] is on record as “co-immunoprecipitated MCL1”.

These data come from patent publication US7691567B2, “Methods and compositions relating to fortilin, an anti-apoptotic molecule, and modulators of fortilin” (Board of Regents, the University of Texas System, priority 2000, dated 2010).
